Results from patent US6448071.

Assays:
[1] = biological target: unloaded H-2 L^d on RMA-S L^d cells (murine) (UniProt P01897); test: direct flow cytometry on RMA-S L^d cells without added peptide
[2] = biological target: H-2 L^d naturally loaded with endogenous peptides on cells (RENCA; MC57G L^d) (murine) (UniProt P01897); test: direct flow cytometry on RENCA cells
[3] = biological target: SIY loaded H-2 K^b on T2 K^b cells (mouse) (UniProt P01901); test: direct flow cytometry on peptide-loaded T2 K^b cells
[4] = biological target: pVSV loaded H-2 K^b on T2 K^b cells (mouse) (UniProt P01901); test: as above
[5] = biological target: tum^- loaded H-2 L^d (murine) (UniProt P01897); test: direct flow cytometry on peptide-loaded RMA-S L^d cells
[6] = biological target: SL9 loaded H-2 L^d (murine) (UniProt P01897); test: as above
[7] = biological target: p2Ca loaded H-2 L^d (murine) (UniProt P01897); test: flow cytometry competition with constant FITC-30.5.7 Fab on peptide-loaded RMA-S L^d cells
[8] = biological target: unloaded H-2 L^d on RMA-S L^d cells (murine) (UniProt P01897); test: direct flow cytometry on RMA-S L^d cells
[9] = biological target: SIY loaded H-2 K^bm3 on T2 K^bm3 cells (mouse); test: direct flow cytometry on peptide-loaded T2 K^bm3 cells
[10] = biological target: p2Ca loaded H-2 L^d (murine) (UniProt P01897); test: flow cytometry, direct saturation of FITC-30.5.7 Fab on peptide-loaded RMA-S L^d cells
[11] = biological target: QL9 loaded H-2 L^d (murine) (UniProt P01897); test: as above
[12] = biological target: SL9 loaded H-2 L^d (murine) (UniProt P01897); test: as above
[13] = biological target: pMCMV loaded H-2 L^d (murine) (UniProt P01897)
Sequence of pMCMV loaded H-2 L^d (murine) (P01897 25-309): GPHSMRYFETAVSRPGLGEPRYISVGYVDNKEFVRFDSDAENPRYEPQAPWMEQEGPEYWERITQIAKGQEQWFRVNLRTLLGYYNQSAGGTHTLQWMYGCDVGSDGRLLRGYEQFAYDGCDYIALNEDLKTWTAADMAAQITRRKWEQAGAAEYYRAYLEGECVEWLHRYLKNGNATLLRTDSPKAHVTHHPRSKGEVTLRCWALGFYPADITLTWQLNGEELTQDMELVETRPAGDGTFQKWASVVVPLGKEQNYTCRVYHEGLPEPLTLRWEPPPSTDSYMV

Sequence of soluble divalent 2C TcR/Ig (A2KF29 whole entry, looked up, tested part not stated): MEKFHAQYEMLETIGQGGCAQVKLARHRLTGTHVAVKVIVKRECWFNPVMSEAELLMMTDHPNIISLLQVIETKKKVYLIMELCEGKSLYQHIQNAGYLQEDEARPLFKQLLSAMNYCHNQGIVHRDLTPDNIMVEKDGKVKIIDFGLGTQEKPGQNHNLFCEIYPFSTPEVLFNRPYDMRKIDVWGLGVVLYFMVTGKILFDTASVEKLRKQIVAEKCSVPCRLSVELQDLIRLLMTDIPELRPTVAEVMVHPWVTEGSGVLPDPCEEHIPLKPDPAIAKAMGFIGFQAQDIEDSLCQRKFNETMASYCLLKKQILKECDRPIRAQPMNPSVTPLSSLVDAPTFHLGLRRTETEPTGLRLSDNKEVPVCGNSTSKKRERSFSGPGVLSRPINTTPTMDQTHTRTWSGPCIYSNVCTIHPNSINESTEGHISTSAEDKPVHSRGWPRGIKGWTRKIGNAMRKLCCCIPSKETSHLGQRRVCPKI
Sequence of H-2 L^d naturally loaded with endogenous peptides on cells (RENCA; MC57G L^d) (murine) (P01897 25-362): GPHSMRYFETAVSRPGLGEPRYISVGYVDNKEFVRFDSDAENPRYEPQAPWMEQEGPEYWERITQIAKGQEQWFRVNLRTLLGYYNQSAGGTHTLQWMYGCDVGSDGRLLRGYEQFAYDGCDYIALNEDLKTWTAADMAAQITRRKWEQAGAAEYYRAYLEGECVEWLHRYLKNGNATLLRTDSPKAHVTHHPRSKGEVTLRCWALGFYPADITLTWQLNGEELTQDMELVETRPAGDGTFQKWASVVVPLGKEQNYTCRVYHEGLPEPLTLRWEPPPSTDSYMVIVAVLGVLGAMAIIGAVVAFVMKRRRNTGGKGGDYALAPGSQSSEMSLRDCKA
Sequence of SL9 loaded H-2 L^d (murine) (P01897 25-309): as the sequence (P01897 25-309) above
Sequence of unloaded H-2 L^d on RMA-S L^d cells (murine) (P01897 25-309): as above
Sequence of p2Ca loaded H-2 L^d (murine) (P01897 25-309): as above
Sequence of SIY loaded H-2 K^b on T2 K^b cells (mouse) (P01901 22-369): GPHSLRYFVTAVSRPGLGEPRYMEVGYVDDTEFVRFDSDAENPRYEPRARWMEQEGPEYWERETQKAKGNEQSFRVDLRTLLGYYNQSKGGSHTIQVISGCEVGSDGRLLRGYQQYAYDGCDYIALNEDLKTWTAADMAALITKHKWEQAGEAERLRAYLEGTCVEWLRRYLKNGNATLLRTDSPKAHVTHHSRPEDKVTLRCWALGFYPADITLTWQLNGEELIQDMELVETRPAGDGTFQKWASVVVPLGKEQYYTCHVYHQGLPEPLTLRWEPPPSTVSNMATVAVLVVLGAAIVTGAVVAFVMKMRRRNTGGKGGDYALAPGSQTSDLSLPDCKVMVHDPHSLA
Sequence of pVSV loaded H-2 K^b on T2 K^b cells (mouse) (P01901 22-369): as above
Sequence of QL9 loaded H-2 L^d (murine) (P01897 25-309): as the sequence (P01897 25-309) above
Sequence of tum^- loaded H-2 L^d (murine) (P01897 25-309): as above

Work on mAb 30.5.7 (antibody) yielded a fold increase of mean channel fluorescence, cells at 27° C. against cells at 37° C. [1] of 5 fold and a fold increase of reactivity on γ-IFN treated cells (5-50 units/ml) over untreated cells [2] of 5 to 6 fold.
For “soluble divalent 2C TcR/Ig (from UniProt A2KF29)”, the MCF [3] was 276 MCF, the MCF [4] was 14 MCF and the MCF [5] was 10 MCF. It also gave an MCF [6] of 100 MCF, a Kapp [7] of 108 nM and an MCF [8] of 10 MCF. The MCF [9] was 36 MCF.
FITC labeled 30.5.7 Fab was tested, and the Kd [10] was 5.8 nM, the Kd [11] was 12.2 nM and the Kd [12] was 4.8 to 6.4 nM. The Kd [13] was 4.8 nM.
